Results reported in the supplement of paper PMC7125110.
± gives the standard error. Fewer inactive variants are shown than the library holds.

B1: glmS ribozyme (parent)
chain: AUAAAAGCGCCAGAACUACAGAAAUGUAGUUGACGAGGAGGAGGUUUAUCGAAUUUUCGGCGGAUGCCUCCAAA

Legend:
Conditions in all cases: with glucosamine-6-phosphate
[1] = variants of: B1; test: self-cleavage kobs at 160 uM GlcN6P; higher = faster cleavage; RNA array
Method in brief: (§1)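 kobs was derived by fitting per-tile medians to one- or two-exponential decays after normalising signals to baseline and to non-cleaving reference variants. Those signals came from barcoded ribozyme variants transcribed in situ by E. coli RNA polymerase on sequenced MiSeq chips, followed through a hybridised Cy3 probe at 37 °C and imaged over ~14 h. Glucosamine-6-phosphate (40 μM to 10 mM) in HEPES/KCl/Mg(OAc)2 buffer was flowed in. Weighted Michaelis–Menten fits across concentrations then gave kcat and KM.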

[2] = variants of: B1; test: self-cleavage kobs at 2500 uM GlcN6P; higher = faster cleavage; RNA array
Method in brief: as §1

[3] = variants of: B1; test: self-cleavage kobs at 640 uM GlcN6P; higher = faster cleavage; RNA array
Method in brief: as §1

[4] = variants of: B1; test: self-cleavage kobs at 10000 uM GlcN6P; higher = faster cleavage; RNA array
Method in brief: as §1

Variant	self-cleavage kobs at 160 uM GlcN6P [1]	self-cleavage kobs at 2500 uM GlcN6P [2]	self-cleavage kobs at 640 uM GlcN6P [3]	self-cleavage kobs at 10000 uM GlcN6P [4]
C11U G29U A39C U54A	< 1e-05 s⁻¹	–	–	–
G29C U31C A33C A36C A53U	< 1e-05 s⁻¹	< 1e-05 s⁻¹	–	–
G7A A48U C71U	< 1e-05 s⁻¹	< 1e-05 s⁻¹	< 1e-05 s⁻¹	–
A6C G35C G41A G62A	< 1e-05 s⁻¹	–	< 1e-05 s⁻¹	–
G13A C58G G59U	< 1e-05 s⁻¹	–	–	–
G35A G63A	< 1e-05 s⁻¹	–	–	< 1e-05 s⁻¹
C34U A36G	< 1e-05 s⁻¹	< 1e-05 s⁻¹	< 1e-05 s⁻¹	–
G40A G44U C61A	< 1e-05 s⁻¹	–	< 1e-05 s⁻¹	< 1e-05 s⁻¹
A12C U65G	0.000115 ± 2.1e-05 s⁻¹	0.00157 ± 0.00024 s⁻¹	0.000543 ± 8.2e-05 s⁻¹	–
A42G G51C G60U	< 1e-05 s⁻¹	–	–	–
A15U A52U C58A C70U	< 1e-05 s⁻¹	–	–	–
G7C A33C G59A	< 1e-05 s⁻¹	–	–	–
A14G U31G G41C	< 1e-05 s⁻¹	–	< 1e-05 s⁻¹	6.26e-05 ± 2.5e-05 s⁻¹
A12G G40A A42C	< 1e-05 s⁻¹	< 1e-05 s⁻¹	–	–
C8G G60A C61A	< 1e-05 s⁻¹	< 1e-05 s⁻¹	–	< 1e-05 s⁻¹
C8G G37A	< 1e-05 s⁻¹	< 1e-05 s⁻¹	< 1e-05 s⁻¹	–
C11G G29U U69G	0.000155 ± 3.5e-05 s⁻¹	–	0.000133 ± 3.6e-05 s⁻¹	–
C34A C50G	5.9e-05 ± 1.6e-05 s⁻¹	–	0.000448 ± 0.00021 s⁻¹	–
U31C C34U C71U	< 1e-05 s⁻¹	< 1e-05 s⁻¹	< 1e-05 s⁻¹	–
G9U U30G G35U G51A	< 1e-05 s⁻¹	–	< 1e-05 s⁻¹	–
C16A A33U A36C A39C G43U	< 1e-05 s⁻¹	–	–	–
C16U A42U C67G	6.07e-05 ± 1.8e-05 s⁻¹	0.000631 ± 0.00021 s⁻¹	0.000203 ± 6.8e-05 s⁻¹	–
C8A G13A G43U G51U	< 1e-05 s⁻¹	< 1e-05 s⁻¹	–	–
A36C U46G A52G G60U	< 1e-05 s⁻¹	< 1e-05 s⁻¹	< 1e-05 s⁻¹	–
A15C A39U U47A U54G	4.07e-05 ± 1.7e-05 s⁻¹	0.000635 ± 8.5e-05 s⁻¹	0.000184 ± 4.1e-05 s⁻¹	–
G35A U49A	< 1e-05 s⁻¹	–	< 1e-05 s⁻¹	< 1e-05 s⁻¹

Variant	self-cleavage kobs at 160 uM GlcN6P [1]	self-cleavage kobs at 2500 uM GlcN6P [2]	self-cleavage kobs at 640 uM GlcN6P [3]	self-cleavage kobs at 10000 uM GlcN6P [4]
C8U U49C	< 1e-05 s⁻¹	< 1e-05 s⁻¹	< 1e-05 s⁻¹	< 1e-05 s⁻¹
U30C G43U	< 1e-05 s⁻¹	< 1e-05 s⁻¹	–	< 1e-05 s⁻¹
C10A G35C C67U	< 1e-05 s⁻¹	< 1e-05 s⁻¹	–	–
G41C U46G U57C	< 1e-05 s⁻¹	< 1e-05 s⁻¹	< 1e-05 s⁻¹	–
C16U C58U	< 1e-05 s⁻¹	2.45e-05 ± 6.4e-06 s⁻¹	–	9.48e-05 ± 8.5e-06 s⁻¹
G51U G63C C67G	< 1e-05 s⁻¹	< 1e-05 s⁻¹	< 1e-05 s⁻¹	< 1e-05 s⁻¹
A14U A33C G59A	< 1e-05 s⁻¹	< 1e-05 s⁻¹	< 1e-05 s⁻¹	–
U30C G62A C68G	< 1e-05 s⁻¹	< 1e-05 s⁻¹	< 1e-05 s⁻¹	< 1e-05 s⁻¹
A6C A14G G29C A39C U54A	< 1e-05 s⁻¹	–	< 1e-05 s⁻¹	–
G37A G44A U46C A48U C71U	< 1e-05 s⁻¹	< 1e-05 s⁻¹	< 1e-05 s⁻¹	–
A36U G41A A42U G43U	< 1e-05 s⁻¹	< 1e-05 s⁻¹	< 1e-05 s⁻¹	–
C34G G37A	< 1e-05 s⁻¹	–	< 1e-05 s⁻¹	–
A15C A33U A36C A48C	< 1e-05 s⁻¹	< 1e-05 s⁻¹	< 1e-05 s⁻¹	–
A15U G32U A36G G43U U65A C67U	< 1e-05 s⁻¹	–	< 1e-05 s⁻¹	–
A15U G43U U56A C68A	0.000115 ± 3.5e-05 s⁻¹	0.00532 ± 0.0014 s⁻¹	–	–
A12U U56G G66C	0.000132 ± 3.1e-05 s⁻¹	0.000708 ± 0.00017 s⁻¹	0.000374 ± 9e-05 s⁻¹	–
G9U C16U G29A U45A U54C	< 1e-05 s⁻¹	–	–	–
G9U G13A	< 1e-05 s⁻¹	–	< 1e-05 s⁻¹	< 1e-05 s⁻¹
C10A A12G C16A U47C G63A C67G	< 1e-05 s⁻¹	–	< 1e-05 s⁻¹	–
G7U G43U C68U	< 1e-05 s⁻¹	< 1e-05 s⁻¹	< 1e-05 s⁻¹	< 1e-05 s⁻¹
G13U G37A A53C G60U C67G	< 1e-05 s⁻¹	< 1e-05 s⁻¹	< 1e-05 s⁻¹	–
A6C A36G U47G	< 1e-05 s⁻¹	–	< 1e-05 s⁻¹	–
A15C U31G U69G	4.96e-05 ± 2e-05 s⁻¹	–	0.000378 ± 9.2e-05 s⁻¹	–
G44A G66C	< 1e-05 s⁻¹	–	–	–
C10A A14G U69G	0.000148 ± 5.1e-05 s⁻¹	6.53e-05 ± 2.3e-05 s⁻¹	0.000195 ± 7.6e-05 s⁻¹	–
